Experimental data as given in patent US20160000910A1.

How the values were obtained:
[1] = molecular target: Aβ1-42 peptide fraction enriched in oligomers (high molecular weight fraction from SEC); test: ELISA on coated fraction; antibody dilution 1:16 (starting dilution 0.5 µg/ml); assay 1
[2] = molecular target: Aβ1-42 peptide fraction consisting primarily of monomers (LMW monomer fraction from SEC); test: as above
[3] = molecular target: Aβ1-42 peptide fraction enriched in oligomers (high molecular weight fraction from SEC); test: ELISA on coated fraction; antibody dilution 1:8 (starting dilution 0.5 µg/ml); assay 2
[4] = molecular target: Aβ1-42 peptide fraction enriched in oligomers (high molecular weight fraction from SEC); test: ELISA on coated fraction; antibody dilution 1:2 (starting dilution 0.5 µg/ml); assay 1
[5] = molecular target: Aβ1-42 peptide fraction consisting primarily of monomers (LMW monomer fraction from SEC); test: as above
[6] = molecular target: Aβ1-42 peptide fraction enriched in oligomers (high molecular weight fraction from SEC); test: ELISA on coated fraction; antibody dilution 1:2 (starting dilution 0.5 µg/ml); mean of 3 assays
[7] = molecular target: Aβ1-42 peptide fraction consisting primarily of monomers (LMW monomer fraction from SEC); test: as above
[8] = molecular target: Aβ1-42 peptide fraction enriched in oligomers (high molecular weight fraction from SEC); test: ELISA on coated fraction; antibody dilution 1:2 (starting dilution 0.5 µg/ml); assay 2
[9] = molecular target: Aβ1-42 peptide fraction consisting primarily of monomers (LMW monomer fraction from SEC); test: as above
[10] = molecular target: Aβ1-42 peptide fraction enriched in oligomers (high molecular weight fraction from SEC); test: ELISA on coated fraction; antibody dilution 1:64 (starting dilution 0.5 µg/ml); mean of 3 assays
[11] = molecular target: Aβ1-42 peptide fraction consisting primarily of monomers (LMW monomer fraction from SEC); test: as above
[12] = molecular target: Aβ1-42 peptide fraction enriched in oligomers (high molecular weight fraction from SEC); test: ELISA on coated fraction; antibody dilution 1:1 (starting dilution 0.5 µg/ml); assay 2
[13] = molecular target: Aβ1-42 peptide fraction consisting primarily of monomers (LMW monomer fraction from SEC); test: as above
[14] = molecular target: Aβ1-42 peptide fraction enriched in oligomers (high molecular weight fraction from SEC); test: ELISA on coated fraction; antibody dilution 1:8 (starting dilution 0.5 µg/ml); assay 1
[15] = molecular target: Aβ1-42 peptide fraction consisting primarily of monomers (LMW monomer fraction from SEC); test: as above
[16] = molecular target: Aβ1-42 peptide fraction enriched in oligomers (high molecular weight fraction from SEC); test: ELISA on coated fraction; antibody dilution 1:64 (starting dilution 0.5 µg/ml); assay 1
[17] = molecular target: Aβ1-42 peptide fraction consisting primarily of monomers (LMW monomer fraction from SEC); test: as above
[18] = molecular target: Aβ1-42 peptide fraction enriched in oligomers (high molecular weight fraction from SEC); test: ELISA on coated fraction; antibody dilution 1:16 (starting dilution 0.5 µg/ml); assay 3
[19] = molecular target: Aβ1-42 peptide fraction consisting primarily of monomers (LMW monomer fraction from SEC); test: as above
[20] = molecular target: Aβ1-42 peptide fraction enriched in oligomers (high molecular weight fraction from SEC); test: ELISA on coated fraction; antibody dilution 1:8 (starting dilution 0.5 µg/ml); mean of 3 assays
[21] = molecular target: Aβ1-42 peptide fraction enriched in oligomers (high molecular weight fraction from SEC); test: ELISA on coated fraction; antibody dilution 1:64 (starting dilution 0.5 µg/ml); assay 2
[22] = molecular target: Aβ1-42 peptide fraction consisting primarily of monomers (LMW monomer fraction from SEC); test: as above
[23] = molecular target: Aβ1-42 peptide fraction enriched in oligomers (high molecular weight fraction from SEC); test: ELISA on coated fraction; antibody dilution 1:64 (starting dilution 0.5 µg/ml); assay 3
[24] = molecular target: Aβ1-42 peptide fraction consisting primarily of monomers (LMW monomer fraction from SEC); test: as above
[25] = molecular target: Aβ1-42 peptide fraction enriched in oligomers (high molecular weight fraction from SEC); test: ELISA on coated fraction; antibody dilution 1:128 (starting dilution 0.5 µg/ml); assay 2
[26] = molecular target: Aβ1-42 peptide fraction consisting primarily of monomers (LMW monomer fraction from SEC); test: as above
[27] = molecular target: Aβ1-42 peptide fraction enriched in oligomers (high molecular weight fraction from SEC); test: ELISA on coated fraction; antibody dilution 1:4 (starting dilution 0.5 µg/ml); assay 3
[28] = molecular target: Aβ1-42 peptide fraction consisting primarily of monomers (LMW monomer fraction from SEC); test: as above

Q: For control antibody 6E10, which O.D. (O.D. at 405 nm) [1] is on record?
A: 1.78

Q: And the O.D. (O.D. at 405 nm) [2]?
A: 1.78

Q: What about the O.D. (O.D. at 405 nm) [3] of the same substance?
A: 2.99

Q: What about the O.D. (O.D. at 405 nm) [4] of the same substance?
A: 3.39

Q: And the O.D. (O.D. at 405 nm) [5]?
A: 3.3

Q: What about the O.D. (mean) (O.D. at 405 nm) [6] of the same substance?
A: 3.59

Q: And the O.D. (mean) (O.D. at 405 nm) [7]?
A: 3.59

Q: What about the O.D. (O.D. at 405 nm) [8] of the same substance?
A: 3.55

Q: And the O.D. (O.D. at 405 nm) [9]?
A: 3.48

Q: And the O.D. (mean) (O.D. at 405 nm) [10]?
A: 0.92

Q: And the O.D. (mean) (O.D. at 405 nm) [11]?
A: 0.94

Q: And the O.D. (O.D. at 405 nm) [12]?
A: 3.67

Q: What about the O.D. (O.D. at 405 nm) [13] of the same substance?
A: 3.77

Q: What about the O.D. (O.D. at 405 nm) [14] of the same substance?
A: 2.73

Q: What about the O.D. (O.D. at 405 nm) [15] of the same substance?
A: 2.67

Q: And the O.D. (O.D. at 405 nm) [16]?
A: 0.93

Q: And the O.D. (O.D. at 405 nm) [17]?
A: 0.81

Q: And the O.D. (O.D. at 405 nm) [18]?
A: 2.07

Q: What about the O.D. (O.D. at 405 nm) [19] of the same substance?
A: 2.23

Q: And the O.D. (mean) (O.D. at 405 nm) [20]?
A: 2.98

Q: And the O.D. (O.D. at 405 nm) [21]?
A: 0.88

Q: What about the O.D. (O.D. at 405 nm) [22] of the same substance?
A: 0.94

Q: And the O.D. (O.D. at 405 nm) [23]?
A: 0.95

Q: And the O.D. (O.D. at 405 nm) [24]?
A: 1.08

Q: And the O.D. (O.D. at 405 nm) [25]?
A: 0.61

Q: What about the O.D. (O.D. at 405 nm) [26] of the same substance?
A: 0.75

Q: What about the O.D. (O.D. at 405 nm) [27] of the same substance?
A: 3.64

Q: What about the O.D. (O.D. at 405 nm) [28] of the same substance?
A: 3.52
